Measurements: patent publication US20070089183A1, “Size and/or growth engineering by modulation of the interaction between calmodulin, and brassinosteroid biosynthetic enzymes and orthologs therof” (Washington State University, priority 2005, published 2007)

Columns and labels:
[1] = test system: DWF1 function (sitosterol/isofucosterol levels); experiment: GC-MS sterol analysis of complemented plants; type: in vivo, Arabidopsis; conditions: endogenous sitosterol/isofucosterol by GC-MS, six- to seven-week-old plants
Method: DWF1 catalyses the conversion of isofucosterol to sitosterol and 24-methylenecholesterol to campesterol^6,7. The endogenous levels of sitosterol/isofiicosterol or campesterol/24-methylenecholesterol in wild-type, dwarf and complemented plants were analysed using gas chromatography-mass spectrometry (GC-MS) to monitor the function of the complementing DWF1, DWF1(V531D), DWF1(KYR521-523DGD) and DWF1(Δ518-539) carried in cW, cM1, cM2 and cM3 plants, respectively.
Sterol analysis. Six- to seven-week-old greenhouse-grown plants were harvested and ground into a fine powder in liquid nitrogen. Aliquots of 100 mg ground material were sponified in 1 N NaOH, 70% ethanol at 70° C. for 2 h. The sterols were extracted three times with 500 μl hexane, and the combined extracts were dried and dissolved in 100 μl of methylene chloride. GC-MS analyses were conducted on an Agilent 6890 GC system with 5973N mass selective detector. A 1 μl aliquot of methylene chloride extract containing the underivatized sterols was loaded by cool on column injection on a Zebron (Phenomenex) ZB-5 column, 30 m×0.25 mm internal diameter with 0.25 μm film thickness. Chromatography was accomplished using He as the carrier gas at a flow rate of 0.7 ml min^−1. The column oven temperature was programmed to run from 40° C. to 300° C. increased at 20° C. min^−1, with a hold for 10 min at 300° C. Identification and quantification of sterols was accomplished by comparison to authentic standards based on the retention time, peak area and mass fragmentation pattern.

35S-CaM = experiment: 35S-CaM-binding assay; conditions: purified recombinant protein covering amino acid 517 to the stop codon, 2 μg per lane
Method: Total proteins from E. coli expressing pScreen-1b (lane 1) or expressing pScreen-1b-517-561 (lane 2) were stained (left panel) or bound to ^35S-CaM in the presence of Ca^2+ (middle panel) or EGTA (right panel), a Ca^2+ chelator. […] Total proteins from plants expressing the Flag-tagged DWF1 (DWF1-Flag) or wild-type plants (WT) were incubated with antibodies against full-length human CaM1 (anti-CaM1), AtBET10 (anti-AtBET10) or non-immune serum (Non-im.); immunocomplexes were separated on SDS-PAGE and detected with anti-Flag M2 monoclonal antibody. […] Total proteins from E. coli expressing pET32b (lane 1), pET32b-1-349 (lane 2), pET32b-348-518 (lane 3), pScreen-1b (lane 4) or pScreen-1b-517-561 (lane 5) were stained (left) or were bound to ^35S-CaM (right). […] CaM and the peptide-CaM complex is indicated.
To confirm further the CaM-binding ability of DWF1, the positive clone from the library screening was expressed in Escherichia coli and tested for ^35S-CaM binding^15 in the presence of Ca^2+, EGTA, a Ca^2+ chelator, or Mg^2+. […] C-terminal Flag-tagged DWF1 overexpression lines of Arabidopsis were produced to study the DWF1-CAM interaction in vivo. Because of the dynamic nature of the interaction between DWF1 and Ca^2+/CaM, co-immunoprecipitation using a prior in vivo crosslinking strategy^16 was adapted to verify their interaction under physiological conditions.
The CaMBD is typically comprised of a stretch of 12-30 contiguous amino acids that contain a positive net charge and have a propensity to form an amphiphilic α-helix^4. […] A peptide corresponding to 518-539 was synthesized, and its CaM-binding ability was confirmed using PCM6 (ref. 17) in a gel mobility shift assay^15 (FIG. 1e).
Mutants. Three mutants were produced to disrupt the conserved secondary structure of the CaMBD of DWF1 (FIG. 6, Panel B): V531D (M1), aimed at disturbing the hydrophobic surface; KYR521-523DGD (M2, K521, Y522 and R523 are changed to D521, G522 and D523), aimed at changing the net surface charges; and Δ518-539 (M3), a total deletion of the CaMBD. […]

dwf1 null mutant = experiment: complementation of dwf1 null mutant, plant phenotype; type: in vivo, Arabidopsis; conditions: for phenotype rescue of dwf1 mutant: 35S promoter-driven construct in homozygous dwf1 knockout
Text: To circumvent the infertility problem associated with homozygous dwf1 mutants^6,7, a heterozygous dwf1 line (SALK—006932, ref. 23) was chosen for transformation. A T-DNA insert is shown in FIG. 6, panel A, and detailed characterizations confirmed that it is a heterozygous dwf1 null mutation line (FIG. 2a, b).
Specifically, heterozygous SALK—006932 plants were transformed with a 35S::DWF1 construct (FIG. 6, panel B). […] Using polymerase chain reaction (PCR) analysis, one dwarf and seven normal plants were identified that carried at least one copy of the 35S::DWF1 complementary construct and were homozygous knockout at the endogenous DWF1 loci. The dwarfism in the dwarf plant was confirmed to be caused by a failure in expression of the transgene (FIG. 2c, d). The overexpressed (numbers 1, 2, 3, 8) and equally expressed (numbers 5, 7) lines grew like the wild-type, confirming a previous report^6. […] At the adult stage, 7 out of the 8 complemented lines reached similar levels of height and fertility as that of wild-type plants (FIG. 3c).
Mutants. Three mutants were produced to disrupt the conserved secondary structure of the CaMBD of DWF1 (FIG. 6, Panel B): V531D (M1), aimed at disturbing the hydrophobic surface; KYR521-523DGD (M2, K521, Y522 and R523 are changed to D521, G522 and D523), aimed at changing the net surface charges; and Δ518-539 (M3), a total deletion of the CaMBD. […] A similar strategy was used to deliver the mutant dwf1 complimentary constructs (FIG. 6, Panel B) into the heterozygous dwf1 plants. Visual checks identified 18, 11 and 19 dwarf plants in the T1 population carrying 35S::DWF1(V531D), 35S::DWF1(KYR521-523DGD) and 35S::DWF1(Δ518-539) complimentary constructs, respectively. These plants were confirmed to carry at least one copy of the transgene and the homozygous knockout at the endogenous DWF1 loci.
To ensure a reliable comparison of the complementary effects of normal DWF1 and the three mutants, T2 plants with similar expression levels were compared (FIG. 3b-d). […] Seeds were produced in most of the slightly shorter siliques of cM1 plants (FIG. 3b, c). […] The dwarf phenotypes of cM1, cM2, cM3 and the dwf1 mutant were rescued by exogenous application of brassinolide (data not shown).

Molecule	recovery of DWF1 function [1]	CaM-binding ability (35S-CaM)	phenotype rescue of dwf1 mutant (dwf1 null mutant)	height of flowering stems relative to the wild-type plant (dwf1 null mutant; T2 plants with similar expression levels)
Δ518-539: Arabidopsis thaliana DWF1 protein Δ518-539 mutant, a total deletion of the CaMBD (protein, listed as Arabidopsis thaliana) MSDLQTPLVRPKRKKTWVDYFVKFRWIIVIFIVLPFSATFYFLIYLGDMWSESKSFEKRQKEHDENVKKVIKRLKGRDASKDGLVCTARKPWIAVGMRNVDYKRARHFEVDLGEFRNILEINKEKMTARVEPLVNMGQISRATVPMNLSLAVVAELDDLTVGGLINGYGIEGSSHIYGLFADTVEAYEIVLAGGELVRATRDNEYSDLYYAIPWSQGTLGLLVAAEIRLIKVKEYMRLTYIPVKGDLQALAQGYIDSFAPKDGDKSKIPDFVEGMVYNPTEGVMMVGTYASKEEAKKKGNKINNVGWWFKPWFYQHAQTALKKGQFVEYIPTREYYHRHTRCLYWEGKLILPFGDQFWFRYLLGWLMPPKVSLLKATQGEAIRNYYHDMHVIQDMLVPLYKVGDALEWVHREMEVYPIWLCPHKLFKQPIKGQIYPEPGFEYENRQGDTEDAQMYTDVGVYYAPGCVLRGEEFDGSEAVRRMEKWLIENHGFQPQYAVSELDEKSFWRMFNGELYEEKTEKEVREAEQAHLETAYAEAD	almost non-existent	undetectable	grew like the uncomplemented dwf1 mutants	–
DWF1: wild-type Arabidopsis DWARF1 (At3g19820), expressed from 35S::DWF1 in cW plants (protein, listed as Arabidopsis thaliana) MSDLQTPLVRPKRKKTWVDYFVKFRWIIVIFIVLPFSATFYFLIYLGDMWSESKSFEKRQKEHDENVKKVIKRLKGRDASKDGLVCTARKPWIAVGMRNVDYKRARHFEVDLGEFRNILEINKEKMTARVEPLVNMGQISRATVPMNLSLAVVAELDDLTVGGLINGYGIEGSSHIYGLFADTVEAYEIVLAGGELVRATRDNEYSDLYYAIPWSQGTLGLLVAAEIRLIKVKEYMRLTYIPVKGDLQALAQGYIDSFAPKDGDKSKIPDFVEGMVYNPTEGVMMVGTYASKEEAKKKGNKINNVGWWFKPWFYQHAQTALKKGQFVEYIPTREYYHRHTRCLYWEGKLILPFGDQFWFRYLLGWLMPPKVSLLKATQGEAIRNYYHDMHVIQDMLVPLYKVGDALEWVHREMEVYPIWLCPHKLFKQPIKGQIYPEPGFEYENRQGDTEDAQMYTDVGVYYAPGCVLRGEEFDGSEAVRRMEKWLIENHGFQPQYAVSELDEKSFWRMFNGELYEECRKKYRAIGTFMSVYYKSKKGRKTEKEVREAEQAHLETAYAEAD	recovered to a level comparable to that in wild-type plants	–	completely rescue	–
KYR52-5231DGD: Arabidopsis thaliana DWF1 protein K521D, Y522G, R523D triple mutant (protein, listed as Arabidopsis thaliana) MSDLQTPLVRPKRKKTWVDYFVKFRWIIVIFIVLPFSATFYFLIYLGDMWSESKSFEKRQKEHDENVKKVIKRLKGRDASKDGLVCTARKPWIAVGMRNVDYKRARHFEVDLGEFRNILEINKEKMTARVEPLVNMGQISRATVPMNLSLAVVAELDDLTVGGLINGYGIEGSSHIYGLFADTVEAYEIVLAGGELVRATRDNEYSDLYYAIPWSQGTLGLLVAAEIRLIKVKEYMRLTYIPVKGDLQALAQGYIDSFAPKDGDKSKIPDFVEGMVYNPTEGVMMVGTYASKEEAKKKGNKINNVGWWFKPWFYQHAQTALKKGQFVEYIPTREYYHRHTRCLYWEGKLILPFGDQFWFRYLLGWLMPPKVSLLKATQGEAIRNYYHDMHVIQDMLVPLYKVGDALEWVHREMEVYPIWLCPHKLFKQPIKGQIYPEPGFEYENRQGDTEDAQMYTDVGVYYAPGCVLRGEEFDGSEAVRRMEKWLIENHGFQPQYAVSELDEKSFWRMFNGELYEECRKDGDAIGTFMSVYYKSKKGRKTEKEVREAEQAHLETAYAEAD	almost non-existent	undetectable	very slight phenotypic rescue	–
V531D: Arabidopsis thaliana DWF1 protein V531D mutant, disturbing the hydrophobic surface of the CaMBD (protein, listed as Arabidopsis thaliana) MSDLQTPLVRPKRKKTWVDYFVKFRWIIVIFIVLPFSATFYFLIYLGDMWSESKSFEKRQKEHDENVKKVIKRLKGRDASKDGLVCTARKPWIAVGMRNVDYKRARHFEVDLGEFRNILEINKEKMTARVEPLVNMGQISRATVPMNLSLAVVAELDDLTVGGLINGYGIEGSSHIYGLFADTVEAYEIVLAGGELVRATRDNEYSDLYYAIPWSQGTLGLLVAAEIRLIKVKEYMRLTYIPVKGDLQALAQGYIDSFAPKDGDKSKIPDFVEGMVYNPTEGVMMVGTYASKEEAKKKGNKINNVGWWFKPWFYQHAQTALKKGQFVEYIPTREYYHRHTRCLYWEGKLILPFGDQFWFRYLLGWLMPPKVSLLKATQGEAIRNYYHDMHVIQDMLVPLYKVGDALEWVHREMEVYPIWLCPHKLFKQPIKGQIYPEPGFEYENRQGDTEDAQMYTDVGVYYAPGCVLRGEEFDGSEAVRRMEKWLIENHGFQPQYAVSELDEKSFWRMFNGELYEECRKKYRAIGTFMSDYYKSKKGRKTEKEVREAEQAHLETAYAEAD	restored to some extent	markedly decreased	some degree of phenotype rescue	up to 40%
